We go through three substances from patent publication US20200147215A1, “DRUG CONJUGATES WITH PHOTOCLEAVABLE SOLUBILITY MODULATORS” (priority 2017, published 2020).

The nature of series [1]: Solubility of non-polar-tag insulin conjugates vs insulin (shaken with PBS pH 7.2, supernatant analyzed). As for the experimental part:
(§1) Diazo was allowed to react for 24 hours. Reaction progress may be monitored on HPLC with a C18 column.
It was hypothesized solubility would be further lowered by the Val-Val-Val peptide being allowed to pack more efficiently than in the Val-Pro-Ile peptide.

The nature of series [2]: Photolysis release of insulin from conjugate vs irradiation time. The class given is physicochemical. As to the method: as §1
Series [3] is described as follows: Photolysis of G2PEA-insulin dissolved in DMSO, analyzed by gel. The class given is physicochemical. Conditions: over the irradiation time period, FIG. 35. From the text:
The lower band is insulin.

Series [4] is described as follows: Isoelectric point (IEF gel). The class given is physicochemical. The following applies: FIG. 33.
Series [5] can be described thus: Quantitative solubility of G2PEA-insulin and insulin in buffer at pH 7.2 and pH 5.4.
For series [6] the following is noted: stated in description, no experiment; cited from earlier work.

Where two headings read alike, the source gives them in different places.

“CD-insulin: drug conjugate of insulin and a cyclododecyl amine non-polar moiety joined by a DMNPE-type photocleavable group”: the “Solubility mM” value in series [1] (Table 3) and in series [1] (Table 5) was 0.009 mM each time. In addition, the “Solubility mg/ml” value in series [1] (Table 3) and in series [1] (Table 5) was 0.06 mg/mL each time. Besides, the “photolysis release rate constant k” value in series [2] (FIG. 7, insulin released into solution v. irradiation time) was 0.154 min-; in series [2] (fit B=A0(1−exp(−kt)), FIG. 19), 0.154 min⁻¹.

Turning to “G2PEA-insulin drug conjugate: drug conjugate of insulin and glutamic acid condensed with two 1-(2-Aminoethyl)pyrrolidine moieties (G2PEA), photocleavable link”, the “conversion to insulin upon irradiation” value in series [3] is “all of the G2PEA insulin is consumed, and insulin is released”. The isoelectric point in series [4] is on record as around 7.

The Solubility is how much of the substance goes into solution per volume. Read a high Solubility as much dissolved substance. As for insulin [reference compound], the Solubility in series [5] (Table 7, pH 7.2 buffer) was found to be 1053.3 ± 158.1 µM; in series [5] (Table 8, pH 5.4), 17.1 ± 2.1 µM. Further, the “Solubility mM” value in series [1] (Table 3) and in series [1] (Table 5) was 0.708 mM throughout. Also, the “Solubility mg/ml” value in series [1] (Table 3) and in series [1] (Table 5) was 4.11 mg/mL each time. For the same substance, the isoelectric point in series [6] is on record as around 5.4.
